This note sets out measurements from patent publication US6867016.

This test addresses rabbit anti-CS141 peptide antiserum raised against unconjugated peptide SEQUENCE ID NO 26. The test is described as follows: competition Western blot; antiserum pre-incubated with varying concentrations of peptide immunogen. (A western blot detects proteins with antibodies after separation by electrophoresis.)

Regarding GPTMCFEDRMIMSPVKNNVGRGLNIALVNGTTGAVLGQK [CS141 synthetic peptide SEQUENCE ID NO 26], the concentration of peptide at which antibody binding to the band was inhibited amounted to 2.54 µM.
